Experimental data from article PMC4329983 (Molecular imaging and biology : MIB : the official …, 2013).

Assays:
[1] = cited from earlier work
[2] = Biodistribution in AR42J tumor-bearing mice; type: in vivo; details: mouse, in vivo
[3] = tested on: AR42J tumor bearing athymic nude mice; test: Biodistribution in AR42J tumor-bearing mice; type: in vivo
[4] = tested on: AR42J rat pancreatic cancer cells; test: Internalization studies of 68Ga-labeled conjugates in AR42J cells; type: cell-based; details: 37 °C, 10-120 min, ~0.7 nM; reference 68Ga-DOTATOC; Fig. 2
[5] = cited from earlier work; remark: listed apart in the source

## O=C([O-])CN1CCN(CC(=O)[O-])CCN(CC(=O)[O-])CC1.[Ga+3] [NOTA-Ga(III)]
[1]
  log K (thermodynamic stability of the Ga(III) complex): 31.0

## C[C@@H](O)[C@@H]1NC(=O)[C@H](CCCCN)NC(=O)[C@@H](Cc2c[nH]c3ccccc23)NC(=O)[C@H](Cc2ccc(O)cc2)NC(=O)[C@@H](NC(=O)[C@@H](Cc2ccccc2)NC(=O)CCC(C(=O)O)N2CCN(CC(=O)O)CCN(CC(=O)O)CC2)CSSC[C@@H](C(=O)N[C@H](CO)[C@@H](C)O)NC1=O (stereo partly drawn) [^68Ga-1, metal not drawn]
[2]; iv, kidney uptake
  tissue uptake at 0.5 h: 22.8 ± 2.22 %ID/g
  tissue uptake at 2 h: 9.79 ± 1.9 %ID/g
[2]; iv, liver uptake
  tissue uptake at 0.5 h: 0.81 ± 0.09 %ID/g
[2]; tumor uptake
  tissue uptake at 1 h: 22.3 ± 3.22 %ID/g
  tissue uptake at 2 h: 12.8 ± 4.65 %ID/g
[3]; mouse, in vivo
  tumor retention rate: 55%
  tumor/kidney ratio: significantly higher
  tumor/liver ratio: significantly higher

## O=C([O-])CN1CCN(CC(=O)[O-])CCN(CC(=O)O)CCN(CC(=O)[O-])CC1.[Ga+3] [DOTA-Ga(III)]
[1]
  log K (thermodynamic stability of the Ga(III) complex): 21.3

## C[C@@H](O)[C@@H]1NC(=O)[C@H](CCCCN)NC(=O)[C@@H](Cc2c[nH]c3ccccc23)NC(=O)[C@H](Cc2ccc(O)cc2)NC(=O)[C@@H](NC(=O)[C@@H](Cc2ccccc2)NC(=O)CCC(C(=O)O)N2CCN(C(CCC(=O)O)C(=O)O)CCN(C(CCC(=O)O)C(=O)O)CC2)CSSC[C@@H](C(=O)N[C@H](CO)[C@@H](C)O)NC1=O (stereo partly drawn) [^68Ga-3, metal not drawn]
[4]
  Internalization in AR42J cells (time course): negligible
[2]; 5 µCi, tumor uptake, 1 h p.i., AR42J xenograft, n=4
  tissue uptake at 1 h: 2.95 ± 0.62 %ID/g
[2]; 5 µCi, tumor uptake, 2 h p.i., AR42J xenograft, n=4
  tissue uptake at 2 h: 0.83 ± 0.1 %ID/g
[2]; iv, 5 µCi, kidney uptake, 30 min p.i., n=4
  tissue uptake at 0.5 h: 13.8 ± 2.22 %ID/g
[2]; iv, 5 µCi, kidney uptake, 2 h p.i., n=4
  tissue uptake at 2 h: 5.24 ± 1.03 %ID/g
[2]; iv, 5 µCi, liver uptake, 30 min p.i., n=4
  tissue uptake at 0.5 h: 0.51 ± 0.05 %ID/g
[3]; 1 h p.i., vs 68Ga-DOTATOC, 68Ga-NO2ATOC and 68Ga-2 (P<0.01), Fig. 5
  tumor/stomach ratio: significantly higher
[3]; 2 h p.i.
  tumor retention rate: 19%
[3]; 2 h p.i. relative to 30 min p.i.
  retention of the initial kidney uptake: less than 52%

## C[C@@H](O)[C@@H]1NC(=O)[C@H](CCCCN)NC(=O)[C@@H](Cc2c[nH]c3ccccc23)NC(=O)[C@H](Cc2ccc(O)cc2)NC(=O)[C@@H](NC(=O)[C@@H](Cc2ccccc2)NC(=O)CCC(C(=O)O)N2CCN(CC(=O)O)CCN(C(CCC(=O)O)C(=O)O)CC2)CSSC[C@@H](C(=O)N[C@H](CO)[C@@H](C)O)NC1=O (stereo partly drawn) [^68Ga-2, metal not drawn]
[4]
  Internalization in AR42J cells (time course): significantly decreased
[2]; iv, kidney uptake
  tissue uptake at 0.5 h: 18.2 ± 1.84 %ID/g
  tissue uptake at 2 h: 8.22 ± 2.29 %ID/g
[2]; iv, liver uptake
  tissue uptake at 0.5 h: 1.38 ± 0.11 %ID/g
[2]; tumor uptake
  tissue uptake at 1 h: 7.87 ± 0.41 %ID/g
  tissue uptake at 2 h: 1.78 ± 0.15 %ID/g
[3]; mouse, in vivo
  tumor retention rate: 24%

## SST-28: physiological form of somatostatin, natural SSTR ligand
[5]
  biological half-life: 2–4 min

## SST-14: physiological form of somatostatin, natural SSTR ligand
[5]
  biological half-life: 2–4 min

## C[C@@H](O)[C@@H]1NC(=O)[C@H](CCCCN)NC(=O)[C@@H](Cc2c[nH]c3ccccc23)NC(=O)[C@H](Cc2ccc(O)cc2)NC(=O)[C@@H](NC(=O)[C@@H](Cc2ccccc2)NC(=O)CN2CCN(CC(=O)O)CCN(CC(=O)O)CCN(CC(=O)O)CC2)CSSC[C@@H](C(=O)N[C@H](CO)[C@@H](C)O)NC1=O [^68Ga-DOTATOC, metal not drawn, reference compound]
[2]; iv, kidney uptake
  tissue uptake at 0.5 h: 11.3 ± 2.07 %ID/g
  tissue uptake at 2 h: 7.33 ± 1.28 %ID/g
[2]; iv, liver uptake
  tissue uptake at 0.5 h: 0.74 ± 0.18 %ID/g
  tissue uptake at 2 h: 4.37 ± 0.2 %ID/g
[2]; tumor uptake
  tissue uptake at 1 h: 13.5 ± 6.28 %ID/g
